From the supplement of paper PMC10567573

B1: P2RY14 (parent)
chain: KLLSVIVWMLMLLLAVPNIILTNQ
B2: ANKRD40 (parent)
chain: YQELLRVCCCELGVNPDQVEKIRK

Variants of: B1
Test: protein stability index of a GFP-peptide fusion (GPS, HEK-293T) (PSI 1-6); higher = more stable
Details: c terminus: a fixed tail appended
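Also: lentivirally expressed fusions sorted by FACS into six bins by GFP to DsRed ratio, PSI derived from sequencing read proportions per bin multiplied by bin number.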

Variant	protein stability index
L14P	4.16
L14H	2.92
L14E	3.48
L14A	2.24
L14W	2.51
L14C	2.41
L14M	3.33
L14I	2.49
L14G	2.27
L14K	2.95
L14V	1.32
L14D	3.07
L14N	2.75
L14T	3.16
L14S	3.42
M9D	4.27
M9E	2.68
M9A	3.79
M9Q	3.1
M9G	2.87
M9K	3.05
M9L	3.19
M9W	2.15
M9S	3.82

Variant	protein stability index
M9N	2.1
V5M	1.71
V5I	3.93
V5E	2.42
V5Y	2.63
V5K	2.52
V5R	2.79
V5T	3.51
V5Q	2.35
V5H	3.85
V5G	4.02
V5N	2.29
V5A	3.26
V5D	3.22
V5F	2.09
V5S	3.98
V5W	2.74
V5L	2.11
V5P	2.54
N18C	2.1
N18P	2.78
N18Y	2.09
N18L	1.65
N18E	2.5

Variant	protein stability index
N18R	1.49
N18G	3.62
N18K	2.59
N18I	2.63
N18V	1.58
N18F	2.16
N18W	1.92
N18T	2.89
N18H	3.81
N18A	1.99
I6F	2.8
I6P	1.89
I6R	2.43
I6M	3.13
I6V	4.09
I6L	4.14
I6T	2.48
I6D	2.02
I6G	2.2
I6N	3.01
I6A	2.45
I6W	2.02
I6S	2.39
V16C	3.32

Variant	protein stability index
V16L	3.59
V16G	2.36
V16E	2.6
V16H	2.06
V16S	2.89
V16M	3.43
V16D	2.52
V16T	2.01
V16N	3.98
V16A	2.77
V16F	4.27
V16I	3.43
V16P	2.75
V16Q	3.43
P17I	1.95
P17C	2.41
P17V	1.23
P17F	2.69
P17R	2.8
P17W	1.98
P17L	2.97
P17N	2.08
P17Q	2.82
P17Y	1.54

Variant	protein stability index
P17T	2.4
P17K	3.35
P17S	3.12
P17E	3
P17D	2.68
P17G	3.39
P17H	2.96
P17M	1.52
P17A	2.56
I20F	2.73
I20K	3.1
I20L	2.52
I20A	2.31
I20Y	3.09
I20P	4.08
I20S	3.35
I20C	1.86
I20V	2.79
I20N	2.31
I20E	3.69
I20D	3.27
K1Y	3.13
K1Q	4.07
K1L	3.3

Variant	protein stability index
K1I	2.53
K1G	2.55
K1H	4.35
K1F	3.58
K1R	2.35
K1P	2.13
K1W	1.35
K1D	1.48
V7F	2.12
V7S	2.28
V7W	4.44
V7R	2.31
V7P	2.8
V7M	3.08
V7A	2.07
V7H	2.11
V7E	2.65
V7T	3.76
V7D	3.57
V7Q	2.74
V7K	4.05
V7Y	3.99
T22D	4.01
T22F	2.97

Variant	protein stability index
T22A	2.75
L2N	1.89
L2K	2.76
L2P	3.19
L2G	2.21
L2F	2.29
L2D	2.67
L2I	3.46
L2C	3.88
L21S	2.57
L21G	3.21
L21R	4.98
L21F	2.73
L21T	3.22
L21N	2.28
L21I	3.12
L21A	3.89
L21P	1.98
L21H	2.2
L21D	2.99
L21M	2.96
L21C	3.7
L21E	2.6
L10T	3.58

Variant	protein stability index
L10P	2.86
L10N	1.95
L10M	3.84
L10F	3.32
L10I	3.19
L10S	4.89
L10D	2.5
L10W	2.31
L10H	3.63
L10C	1.39
L10V	2.99
L10Q	3.16
L10G	2.08
L10E	4.43
L10Y	3.48
L12M	3.06
L12P	3.18
L12N	2.32
L12D	2.65
L12A	2.7
L12H	2.22
L12F	2.59
L12R	2.69
L12C	3.75

Variant	protein stability index
L12G	3.74
L12Q	2.51
L13A	2.98
L13G	2.79
L13N	3.02
L13I	1.81
L13T	2.38
L13Y	3.48
L13K	1.78
L13S	3.29
L13P	3.47
L13H	4.28
L13V	1.84
L13D	3.11
L13F	3.72
L13R	2.15
I19Q	1.89
I19Y	3.02
I19D	2.8
I19A	3.24
I19N	3.66
I19S	2.07
I19K	1.76
I19R	2.2

Variant	protein stability index
I19P	3.43
I19M	1.29
I19F	2.98
I19T	3.06
M11Q	1.1
M11D	4.89
M11Y	2.38
M11N	2.42
M11P	3.16
M11I	3.17
M11R	2.58
M11E	2.06
M11V	3.42
M11H	3
M11A	2.06
M11S	2.01
M11W	2.89
M11K	2.5
M11F	3.31
A15M	3.03
A15E	2.84
A15W	2.2
A15L	2.56
A15H	3.28

Variant	protein stability index
A15Q	3.12
A15K	3.74
A15N	3.1
A15C	3.31
A15D	3.06
A15V	2.77
A15P	2.35
W8Q	1.99
W8V	2.86
W8H	2.85
W8Y	2.21
W8K	3.73
W8I	3.03
W8F	2.3
W8L	1.76
W8M	3.83
W8R	2.67
W8P	1.85
W8C	1.95
W8E	3.97
W8N	2.41
W8T	3.35
W8G	2.81
S4N	2.81

Variant	protein stability index
S4H	3.18
S4I	2.44
S4W	4.74
S4Q	2.56
S4K	5.66
S4Y	2.82
S4G	2.85
S4R	2.78
S4T	2.53
S4P	3.34
S4F	2.98
S4V	3.9
L3N	4.61
L3I	1.73
L3M	1.64
L3W	3.69
L3Y	2.55
L3T	2.93
L3K	3.61
L3A	2.27
L3S	2.35
L3F	3.42
L3E	2.78
L3H	1.3

Variants of: B2
Test: as above
Details: c terminus: a fixed tail appended

Variant	protein stability index
K24M	1.66
K24S	1.66
K24R	1.6
K24I	1.6
K24V	1.61
K24N	1.61
K24P	1.35
K24Q	2.12
K24D	2.13
K24E	1.62
K24C	1
K24F	3.37
K24A	1.36
K24W	1.27
K24L	2.07
K24H	1.59
K24T	2
K24G	2.46
I22N	3.16
I22R	1.88
I22Y	2.57
I22Q	2.99
I22M	1.63

Variant	protein stability index
I22W	1.54
I22S	2.06
I22L	1.93
I22P	1.18
I22V	1.41
R23E	1.6
R23A	1.91
R23Y	1.8
R23G	1.56
R23I	1.8
R23V	2.9
R23N	1.93
R23T	2.08
R23M	2.02
R23P	1.57
R23H	1.84
R23K	1.25
R23Q	1.4
R23S	1.72
R23W	1.72
R23D	2.04
R23F	1.55
R23L	1.98
